Here are results for two substances from publication PMC3490968.

For this experiment, the target named is papain (UniProt P00784). Kind of experiment: enzyme inhibition kinetics (fluorogenic substrate, Lineweaver-Burk plot); papain 2 nM, cystatin 40, 60, 80 pM, substrate Z-Phe-Arg-7-amido-4-methylcoumarin 0.3-5 uM; 100 mM sodium phosphate pH 6.3, 10 mM EDTA, 400 mM NaCl, 2 mM dithiothreitol.
Chain of UniProt P00784 (P00784 134-345): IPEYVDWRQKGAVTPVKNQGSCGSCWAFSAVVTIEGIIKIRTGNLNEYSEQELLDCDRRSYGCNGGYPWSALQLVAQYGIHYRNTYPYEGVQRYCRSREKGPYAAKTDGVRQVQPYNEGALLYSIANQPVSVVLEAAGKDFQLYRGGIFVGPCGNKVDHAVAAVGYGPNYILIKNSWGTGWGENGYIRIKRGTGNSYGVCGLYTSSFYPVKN

The substance “recombinant pineapple cystatin (AcCYS), residue 1-135 (natural protein)” returned a Ki of 0.2 nM.
To “truncated AcCYS (AcCYS_DL), residue 28-135 (domain or fragment)” belongs 0.14 nM.
